Assay results as given in patent publication US20230070731A1, “COMPOSITIONS FOR SMALL MOLECULE CONTROL OF PRECISE BASE EDITING OF TARGET NUCLEIC ACIDS AND METHODS OF USE THEREOF” (THE TRUSTEES OF THE UNIVERSITY OF PENNSYLVANIA, priority 2020, published 2023).

Assays:
[1] = system: fluorescein (FAM)-labeled oligonucleotide substrate containing a single cytosine; assay: In vitro DNA deaminase oligonucleotide assay; type: biochemical; details: result in words
Method: For in vitro assays, purified intact, optGFP-inserted, or split DNA deaminases were expressed in BL21(DE3) cells that co-express the Trigger Factor (TF) chaperone, as previously described^33. Briefly, 600 mL cultures were grown to an OD600 of 0.6 at 37° C. Cultures were shifted to 16° C. for 16 hours after induction with 1 mM IPTG. For AID variants, the pelleted cells were resuspended in 50 mM Tris-Cl (pH 7.5) 150 mM NaCl, 10% glycerol (wash buffer) and lysed through sonication. The soluble fraction was filtered after high-speed centrifugation and incubated with 3 mL of Amylose Resin (NEB) for 1 hr at 4° C. The resin was washed extensively prior to elution with wash buffer plus 10 mM maltose. Total protein was quantified by comparison to a BSA standard curve. For A3A variants, the pelleted cells were resuspended in 50 mM Tris-Cl (pH 7.5) 150 mM NaCl, 10% glycerol, 25 mM imidazole (wash buffer) and lysed through sonication. The soluble fraction was filtered after high-speed centrifugation and incubated with 3 mL of HisPur cobalt resin (Thermo) for 1 hr at 4° C. […]
For the in vitro assay, a fluorescein (FAM)-labeled oligonucleotide substrate was used containing a single cytosine, along with a product control oligonucleotide containing uracil at the same location. […] Product formation was quantified using ImageJ by taking the ratio of substrate to product under each condition. […]

BL21(DE3) E. coli = assay: Bacterial DNA deaminase rifampicin mutagenesis assay (acquired rifampin resistance); type: cell-based; details: expression in E. coli
Method: In initial studies, a foreign protein/domain was inserted into an enhanced hyperactive version of AID described in U.S. patent application Ser. No. 16/025,261 (See for example, SEQ ID NO: 20 of the '261 patent application) which is incorporated herein by reference as though set forth in full. This mutant version of the human DNA deaminase AID, involved in antibody maturation was assessed and the loop regions which appeared to be tolerant to insertion of control elements (e.g., Green Fluorescent Protein GFP fragments) were identified as described hereinbelow. Several candidate locations for insertion were identified. We used an E. coli-based rifampin mutagenesis assay to evaluate activity (See Kohli et al., J Biol Chem. (2009) 284:pages 22898-904). In this assay we measure the activity level of a mutator by measuring how many E. coli can be turned resistant to the antibiotic rifampin when the enzyme is turned on.
The mutation frequency of various DNA deaminases, including insertion constructs, were determined using a modified version of previously reported rifampin mutagenesis assay (Kohli, JBC 2009). […] The mutation frequencies were then calculated by the ratio of rifampicin resistant colonies to total population. […]

Substance	in vitro deaminase activity [1]	Rif^R increase relative to catalytically inactive mutant AID(E58A) (BL21(DE3) E. coli) [fold]
A3A: human A3 enzyme APOBEC3A DNA deaminase	tolerated optGFP insertion	
AID(WT): unmutated AID (activation induced deaminase)		12
